Data as given in the Human Domainome abundance scans (Beltran et al. 2025).
± gives the uncertainty stated by the source.

B1: GAS2-like protein 1, residues 209 to 276; numbered along this chain, Q99501 (parent)
chain: DELVREILGRCTCPDQFPMIKVSEGKYRVGDSSLLIFVRVLRSHVMVRVGGGWDTLEHYLDKHDPCRC

Variants of: B1
Test: abundance fitness (aPCA) (normalised: wild type 0, dead -1); higher = more abundant; growth selection in yeast, the domain comes from the species named
Conditions: Homo sapiens
For DELVREILGRCTCPDQFPMIKVSEGKYRVGDSSLLIFVRVLRSHVMVRVGGGWDTIEHYLDKHDPCRC, the abundance fitness was -0.485 ± 0.13.
DELVREILGRCTCPDQFPMIKVSEGKYRVGDSSLLIFVRVLRSHVMVRVGGGWDTYEHYLDKHDPCRC gave an abundance fitness of -0.716 ± 0.12.
With DELVREILGRCTCPDQFPMIKVSEGKYRVGDSSLLIFVRVLRSHVMVRVGGGWDTAEHYLDKHDPCRC the abundance fitness was -0.944 ± 0.12.
For DELVREILGRCTCPDQFPMIKVSEGKYRVGDSSLLIFVRVLRSHVMVRVGGGWDTSEHYLDKHDPCRC, the abundance fitness was -0.691 ± 0.098.
Variant DELVREILGRCTCPDQFPMIKVSEGKYRVGDSSLLIFVRVLRSHVMVRVGGGWDTNEHYLDKHDPCRC has an abundance fitness of -0.806 ± 0.26.
DELVREILGRCTCPDQFPMIKVSEGKYRVGDSSLLIFVRVLRSHVMVRVGGGWDTEEHYLDKHDPCRC showed an abundance fitness of -0.965 ± 0.24.
With DELVREILGRCTCPDQFPMIKVSEGKYRVGDSSLLIFVRVLRSHVMVRVGGGWDTLEGYLDKHDPCRC the abundance fitness was 0.008 ± 0.044.
DELVREILGRCTCPDQFPMIKVSEGKYRVGDSSLLIFVRVLRSHVMVRVGGGWDTLECYLDKHDPCRC showed an abundance fitness of -0.3 ± 0.068.
With DELVREILGRCTCPDQFPMIKVSEGKYRVGDSSLLIFVRVLRSHVMVRVGGGWDTLEAYLDKHDPCRC the abundance fitness was 0.043 ± 0.042.
Variant DELVREILGRCTCPDQFPMIKVSEGKYRVGDSSLLIFVRVLRSHVMVRVGGGWDTLEPYLDKHDPCRC has an abundance fitness of -0.933 ± 0.17.
With DELVREILGRCTCPDQFPMIKVSEGKYRVGDSSLLIFVRVLRSHVMVRVGGGWDTLEWYLDKHDPCRC the abundance fitness was -0.752 ± 0.13.
Work on DELVREILGRCTCPDQFPMIKVSEGKYRVGDSSLLIFVRVLRSHVMVRVGGGWDTLEKYLDKHDPCRC yielded an abundance fitness of -0.138 ± 0.051.
For DELVREILGRCTCPDQFPMIKVSEGKYRVGDSSLLIFVRVLRSHVMVRVGGGWDTLEYYLDKHDPCRC, the abundance fitness was -0.676 ± 0.081.
With DELVREILGRCTCPDQFPMIKVSEGKYRVGDSSLLIFVRVLRSHVMVRVGGGWDTLEEYLDKHDPCRC the abundance fitness was -0.102 ± 0.072.
Work on DELVREILGRCTCPDQFPMIKVSEGKYRVGDSSLLIFVRVLRSHVMVRVGGGWDTLELYLDKHDPCRC yielded an abundance fitness of -0.673 ± 0.074.
DELVREILGRCTCPDQFPMIKVSEGKYRVGDSSLLIFVRVLRSHVMVRVGGGWDTLEQYLDKHDPCRC showed an abundance fitness of -0.34 ± 0.11.
In the case of DELVREILGRCTCPDQFPMIKVSEGKYRVGDSSLLIFVRVLRSHVMVRVGGGWDTLEMYLDKHDPCRC, the abundance fitness is reported as -0.514 ± 0.066.
For DELVREILGRCTCPDQFPMIKVSEGKYRVGDSSLLIFVRVLRSHVMVRVGGGWDTLEVYLDKHDPCRC, the abundance fitness was -0.688 ± 0.063.
With DELVREILGRCTCPDQFPMIKVSEGKYRVGDSSLLIFVRVLRSHVMVRVGGGWDTLEFYLDKHDPCRC the abundance fitness was -0.877 ± 0.22.
DELVREILGRCTCPDQFPMIKVSEGKYRVGDSSLLIFVRVLRSHVMVRVGGGWDTLERYLDKHDPCRC gave an abundance fitness of -0.116 ± 0.043.
DELVREILGRCTCPDQFPMIKVSEGKYRVGDSSLLIFVRVLRSHVMVRVGGGWDTLFHYLDKHDPCRC showed an abundance fitness of -0.958 ± 0.14.
DELVREILGRCTCPDQFPMIKVSEGKYRVGDSSLLIFVRVLRSHVMVRVGGGWDTLPHYLDKHDPCRC gave an abundance fitness of -0.922 ± 0.16.
Work on DELVREILGRCTCPDQFPMIKVSEGKYRVGDSSLLIFVRVLRSHVMVRVGGGWDTLQHYLDKHDPCRC yielded an abundance fitness of -0.235 ± 0.16.
With DELVREILGRCTCPDQFPMIKVSEGKYRVGDSSLLIFVRVLRSHVMVRVGGGWDTLVHYLDKHDPCRC the abundance fitness was -0.765 ± 0.15.
For DELVREILGRCTCPDQFPMIKVSEGKYRVGDSSLLIFVRVLRSHVMVRVGGGWDTLGHYLDKHDPCRC, the abundance fitness was -0.627 ± 0.11.
DELVREILGRCTCPDQFPMIKVSEGKYRVGDSSLLIFVRVLRSHVMVRVGGGWDTLIHYLDKHDPCRC gave an abundance fitness of -0.669 ± 0.11.
DELVREILGRCTCPDQFPMIKVSEGKYRVGDSSLLIFVRVLRSHVMVRVGGGWDTLDHYLDKHDPCRC showed an abundance fitness of -0.21 ± 0.2.
For DELVREILGRCTCPDQFPMIKVSEGKYRVGDSSLLIFVRVLRSHVMVRVGGGWDTLLHYLDKHDPCRC, the abundance fitness was -0.873 ± 0.12.
For DELVREILGRCTCPDQFPMIKVSEGKYRVGDSSLLIFVRVLRSHVMVRVGGGWDTLSHYLDKHDPCRC, the abundance fitness was -0.388 ± 0.052.
With DELVREILGRCTCPDQFPMIKVSEGKYRVGDSSLLIFVRVLRSHVMVRVGGGWDTLCHYLDKHDPCRC the abundance fitness was -0.993 ± 0.18.
With DELVREILGRCTCPDQFPMIKVSEGKYRVGDSSLLIFVRVLRSHVMVRVGGGWDTLRHYLDKHDPCRC the abundance fitness was -0.899 ± 0.14.
With DELVREILGRCTCPDQFPMIKVSEGKYRVGDSSLLIFVRVLRSHVMVRVGGGWDTLKHYLDKHDPCRC the abundance fitness was -0.598 ± 0.33.
For DELVREILGRCTCPDQFPMIKVSEGKYRVGDSSLLIFVRVLRSHVMVRVGGGWDTLTHYLDKHDPCRC, the abundance fitness was -0.365 ± 0.077.
DELVREILGRCTCPDQFPMIKVSEGKYRVGDSSLLIFVRVLRSHVMVRVGGGWDTLHHYLDKHDPCRC showed an abundance fitness of -0.669 ± 0.086.
DELVREILGRCTCPDQFPMIKVSEGKYRVGDSSLLIFVRVLRSHVMVRVGGGWDTLEHYEDKHDPCRC showed an abundance fitness of -0.842 ± 0.11.
Work on DELVREILGRCTCPDQFPMIKVSEGKYRVGDSSLLIFVRVLRSHVMVRVGGGWDTLEHYFDKHDPCRC yielded an abundance fitness of -0.864 ± 0.5.
DELVREILGRCTCPDQFPMIKVSEGKYRVGDSSLLIFVRVLRSHVMVRVGGGWDTLEHYKDKHDPCRC showed an abundance fitness of -0.838 ± 0.15.
Variant DELVREILGRCTCPDQFPMIKVSEGKYRVGDSSLLIFVRVLRSHVMVRVGGGWDTLEHYDDKHDPCRC has an abundance fitness of -0.584 ± 0.12.
In the case of DELVREILGRCTCPDQFPMIKVSEGKYRVGDSSLLIFVRVLRSHVMVRVGGGWDTLEHYIDKHDPCRC, the abundance fitness is reported as -0.531 ± 0.095.
In the case of DELVREILGRCTCPDQFPMIKVSEGKYRVGDSSLLIFVRVLRSHVMVRVGGGWDTLEHYGDKHDPCRC, the abundance fitness is reported as -0.915 ± 0.12.
